Test results: patent US20140057807A1 (UNIVERSITY OF CHICAGO, published 2014)

T1: human Abl SH2 domain (human, UniProt P00519 112-232, limits assumed)
T1 construct: domain: SH2 domain; poly-histidine tagged in selection; tag cleaved for SPR and crystals; also called Ab1SH2; SH2 domain of Abl kinase
T1 sequence (looked up): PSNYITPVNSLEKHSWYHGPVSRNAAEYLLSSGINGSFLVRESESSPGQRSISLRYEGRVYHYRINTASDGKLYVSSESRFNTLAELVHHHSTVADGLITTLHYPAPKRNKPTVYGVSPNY


Biological target: human ubiquitin (human, UniProt P0CG48 1-76)
Experiment: phage display selection hit, BL1 library

binding result | Binder
binds | SEQ ID NO 15 (designed binder) VSSVPTKLEVVAATPTSLLISWDAPAVTVDHYVITYGETGAHYYYFQEFEVPGSKSTATISGLSPGVDYTITVYAVSHGTDGNKLYFFSPISINYRT
binds | SEQ ID NO 17 (designed binder) VSSVPTKLEVVAATPTSLLISWDAPAVTVDYYVITYGETGWYSPPQEFTVPGSKSTATISGLSPGVDYTITVYAWNWSAGLQSPISINYRT
binds | SEQ ID NO 20 (designed binder) VSSVPTKLEVVAATPTSLLISWDAPAVTVLYYVITYGETGGNSPVQEFTVPGSKSTATISGLSPGVDYTITVYATDYGPGYPYESPISINYRT
binds | SEQ ID NO 12 (designed binder) VSSVPTKLEVVAATPTSLLISWDAPAVTVDHYNITYGETGAFWHYVQAFTVPGSKSTATISGLSPGVDYTITVYAEWDQYVVGSPISINYRT
binds | SEQ ID NO 13 (designed binder) VSSVPTKLEVVAATPTSLLISWDAPAVTVDYYVITYGETGGGYYSFQAFEVPGSKSTATISGLSPGVDYTITVYAFWPDDYYYGGSEYSPISINYRT
binds | SEQ ID NO 22 (designed binder) VSSVPTKLEVVAATPTSLLISWDAPAVTVDHYFITYGETGGSWSYYQEFAVPGSKSTATISGLSPGVDYTITVYAYSYEPYYYYNPISINYRT

The remaining lines, values behind:

Binder | binding result
SEQ ID NO 14 (designed binder) VSSVPTKLEVVAATPTSLLISWDAPAVTVDHYHITYGETGGSWSGYQEFTVPGSKSTATISGLSPGVDYTITVYANSSWYWYNPISINYRT | binds
SEQ ID NO 18 (designed binder) VSSVPTKLEVVAATPTSLLISWDAPAVTVDYYVITYGETGGNSPVQEFTVPGSKSTATISGLSPGVDYTITVYAWSWKYWYHGSPISINYRT | binds
SEQ ID NO 21 (designed binder) VSSVPTKLEVVAATPTSLLISWDAPAVTVDLYHITYGETGGVWSGYQEFTVPGSKSTATISGLSPGVDYTITVYAVQHQEIWPYYYSPISINYRT | binds
SEQ ID NO 19 (designed binder) VSSVPTKLEVVAATPTSLLISWDAPAVTVDFYIITYGETGGGYYSYQTFTVPGSKSTATISGLSPGVDYTITVYANEFGKSYPYTMNPISINYRT | binds

Biological target: T1, human Abl SH2 domain
Experiment: phage display selection hit, BL1 library

binding result | Binder
binds | SEQ ID NO 41 (designed binder) VSSVPTKLEVVAATPTSLLISWDAPAVTVDYYYITYGETGGNSPVQEFTVPGSKSTATISGLSPGVDYTITVYAWYWNDYYMSSMSPISINYRT
binds | SEQ ID NO 31 (designed binder) VSSVPTKLEVVAATPTSLLISWDAPAVTVVFYVITYGETGSYSGWQEFEVPGSKSTATISGLSPGVDYTITVYAYYYQNPESYYSPISINYRT
binds | SEQ ID NO 34 (designed binder) VSSVPTKLEVVAATPTSLLISWDAPAVTVHYYVITYGETGWWGPVQEFTVPGSKSTATISGLSPGVDYTITVYAYWKYSYKYSPISINYRT
binds | SEQ ID NO 35 (designed binder) VSSVPTKLEVVAATPTSLLISWDAPAVTVDYYVITYGETGAFGSGQEFEVPGSKSTATISGLSPGVDYTITVYAKWMYSYMYNPISINYRT
binds | SEQ ID NO 43 (designed binder) VSSVPTKLEVVAATPTSLLISWDAPAVTVVHYHITYGETGGNSPVQEFTVPGSKSTATISGLSPGVDYTITVYADWQYSYMYSPISINYRT
binds | SEQ ID NO 32 (designed binder) VSSVPTKLEVVAATPTSLLISWDAPAVTVDLYFITYGETGGNSPVQEFTVPGSKSTATISGLSPGVDYTITVYAWYYGYYGPQYTSPISINYRT

Further lines, the binder ahead of its results:

Binder | binding result
SEQ ID NO 39 (designed binder) VSSVPTKLEVVAATPTSLLISWDAPAVTVDFYVITYGETGSYGSYPQAFEVPGSKSTATISGLSPGVDYTITVYTESEGYISSSPISINYRT | binds
SEQ ID NO 38 (designed binder) VSSVPTKLEVVAATPTSLLISWDAPAVTVDYYVITYGETGVPYYGWQEFEVPGSKSTATISGLSPGVDYTITVYAYPGSNWFYDWWSPISINYRT | binds
SEQ ID NO 30 (designed binder) VSSVPTKLEVVAATPTSLLISWDAPAVTVDFYFITYGETGGNSPVQEFTVPGSKSTATISGLSPGVDYTITVYAWDNWDDYYYSPISINYRT | binds
SEQ ID NO 37 (designed binder) VSSVPTKLEVVAATPTSLLISWDAPAVTVVYYNITYGETGGNSPVQEFTVPGSKSTATISGLSPGVDYTITVYAWYEYGGYMEIDSPISINYRT | binds
SEQ ID NO 40 (designed binder) VSSVPTKLEVVAATPTSLLISWDAPAVYHYVYLITYGETGGNSPVQEFTVPGSKSTATISGLSPGVDYTITVYAKWKYSYQYSPISINYRT | binds
SEQ ID NO 28 (designed binder) VSSVPTKLEVVAATPTSLLISWDAPAVTVDHYVITYGETGGYPSPVQTFTVPGSKSTATISGLSPGVDYTITVYAWDYDWYAIGSPISINYRT | binds
SEQ ID NO 42 (designed binder) VSSVPTKLEVVAATPTSLLISWDAPAVTVDYYVITYGETGGNSPVQEFEVPGSKSTATISGLSPGVDYTITVYATYGDAYWHYYYSPISINYRT | binds
SEQ ID NO 29 (designed binder) VSSVPTKLEVVAATPTSLLISWDAPAVTVVYYVITYGETGGNSPVQEFTVPGSKSTATISGLSPGVDYTITVYAWYTFQYDYYVTQSSPISINYRT | binds
SEQ ID NO 33 (designed binder) VSSVPTKLEVVAATPTSLLISWDAPAVTVDYYYITYGETGGNSPVQEFTVPGSKSTATISGLSPGVDYTITVYAWYQHDFDYHVWGSSPISINYRT | binds
SEQ ID NO 36 (designed binder) VSSVPTKLEVVAATPTSLLISWDAPAVTVVYYFITYGETGGNSPVQEFTVPGSKSTATISGLSPGVDYTITVYAWSYELTGDYLQQFSPISINYRT | binds

Biological target: T2, human serum albumin (human, UniProt P02768 25-609)
T2 construct: also called HSA
Experiment: cradle library selection hit

T2 sequence (P02768 25-609 limits assumed): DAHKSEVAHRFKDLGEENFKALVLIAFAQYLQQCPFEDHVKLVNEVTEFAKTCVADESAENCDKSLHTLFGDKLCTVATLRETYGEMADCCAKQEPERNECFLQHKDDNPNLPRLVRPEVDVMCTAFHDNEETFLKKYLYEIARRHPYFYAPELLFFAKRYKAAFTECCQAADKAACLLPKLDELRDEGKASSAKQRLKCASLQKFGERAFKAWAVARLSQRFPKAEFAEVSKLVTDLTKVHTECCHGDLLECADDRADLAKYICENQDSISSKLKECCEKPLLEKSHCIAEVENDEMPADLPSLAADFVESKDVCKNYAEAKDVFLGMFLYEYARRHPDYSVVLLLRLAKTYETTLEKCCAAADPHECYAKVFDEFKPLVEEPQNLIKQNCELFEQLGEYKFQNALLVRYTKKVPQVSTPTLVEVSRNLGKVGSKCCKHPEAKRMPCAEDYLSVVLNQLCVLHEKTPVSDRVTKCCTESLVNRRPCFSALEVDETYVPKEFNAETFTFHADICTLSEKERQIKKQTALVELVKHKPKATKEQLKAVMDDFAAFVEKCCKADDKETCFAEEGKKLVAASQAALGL

binding result | Binder
binds | SEQ ID NO 276 (designed binder) NVSPPRRARVTDATETTITISWRTKTETITLFYVYAYPRYYPGIQRTIKPDVRSYTITGLQPGTSYSIYLSTLWDTKGYPVVIDAST
binds | SEQ ID NO 270 (designed binder) NVSPPRRARVTDATETTITISWRTKTETITAFYVHAVPMLWVVNGIQRTIKPDVRSYTITGLQPGTSYTINLETLRMSSHYYPVVIDAST
binds | SEQ ID NO 277 (designed binder) NVSPPRRARVTDATETTITISWRTKTETITTFMVVAYPMFQYRIQRTIKPDVRSYTITGLQPGTSYTIYLQTLGYASWYPVVIDAST
binds | SEQ ID NO 275 (designed binder) NVSPPRRARVTDATETTITISWRTKTETITSFYVDAGPWYRPDAYEYIQRTIKPDVRSYTITGLQPGTGYSIQLYTLYAYAYLYPVVIDAST
binds | SEQ ID NO 267 (designed binder) NVSPPRRARVTDATETTITISWRTKTETITWFYVSAFPLLVDGIQRTIKPDVRSYTITGLQPGTYYGINLYTLSSYPVVIDAST
binds | SEQ ID NO 272 (designed binder) NVSPPRRARVTDATETTITISWRTKTETITAFYVGAHPWYNLEIQRTIKPDVRSYTITGLQPGTGYVISLYTLWHHNEAPVVIDAST

Further lines, the binder ahead of its results:

Binder | binding result
SEQ ID NO 268 (designed binder) NVSPPRRARVTDATETTITISWRTKTETITYFYVYAKPRYINSIQRTIKPDVRSYTITGLQPGTDYSIYLDTLYWGGEYGPVVIDAST | binds
SEQ ID NO 271 (designed binder) NVSPPRRARVTDATETTITISWRTKTETITSFYVRALPVSAWPIQRTIKPDVRSYTITGLQPGTGYNIGLVTLYYGASYVPVVIDAST | binds
SEQ ID NO 274 (designed binder) NVSPPRRARVTDATETTITISWRTKTETITGFHVFASPWYSGSQSIQRTIKPDVRSYTITGLQPGTTYYIGLNTLYIPGHEPPVVIDAST | binds
SEQ ID NO 269 (designed binder) NVSPPRRARVTDATETTITISWRTKTETITAFNVYASPEYWRYGYFRFIQRTIKPDVRSYTITGLQPGTGYYIYLYTLYHKYGYYPVVIDAST | binds
SEQ ID NO 273 (designed binder) NVSPPRRARVTDATETTITISWRTKTETITSFWVHAYPSGASGGIQRTIKPDVRSYTITGLQPGTNYGIALATLTHYYTYSPVVIDAST | binds
